# Experimental data taken from patent publication US7850981B2, “Immuno-adjuvant PDT treatment of metastatic tumors” (QLT, Inc., priority 1999, dated 2010).
# Like-named read-outs stand apart in the source and are kept apart here.
# What was measured:
# [1] = tested on: DC; test: Preliminary experiments: daily injection of FLT3 L into mice, numbers of DC; format: in vivo; conditions: daily injection of 10 μg into mice for 10 days
# [2] = tested on: DC; conditions: after multiple injections, cited from earlier work
molecule,measurement,setting,value
"FLT3-ligand: cytokine factor promoting growth of hematopoietic progenitors; increases dendritic cell numbers (protein, UniProt P49771 27-235, looked up) Fms-related tyrosine kinase 3 …: TQDCSFQHSPISSDFAVKIRELSDYLLQDYPVTVASNLQDEELCGGLWRLVLAQRWMERLKTVAGSKMQGLLERVNTEIHFVTKCAFQPPPSCLRFVQTNISRLLQETSEQLVALKPWITRQNFSRCLELQCQPDSSTLPPPWSPRPLEATAPTAPQPPLLLLLLLPVGLLLLAAAWCLHWQRTRRRTPRPGEQVPPVPSPQDLLLVEH",numbers of DC,[1],dramatically increase
same,increase in DC numbers,[2]; blood,~6 fold
same,increase in DC numbers,[2]; peripheral lymph nodes,~4 fold
same,increase in DC numbers,[2]; spleen,approximately 17 fold
